Measured values from patent US10709761B2, “Methods and compositions for preventing or treating cancer” (UNIVERSITY OF UTAH RESEARCH FOUNDATION, priority 2015, dated 2020).

Columns and labels:
[1] = tested on: elephant fibroblasts; assay: Caspase 3/7 cleavage after doxorubicin, elephant fibroblasts; type: cell-based, African elephant; conditions: 10 μM and 30 μM doxorubicin
[2] = tested on: African elephant lymphocytes; assay: Annexin V / propidium iodide apoptosis after doxorubicin, elephant lymphocytes; type: cell-based; conditions: 5 μM doxorubicin, 18 and 24 hours
Experimental: Ionizing radiation (0.5, 2, 5, 6, 10, and 20 Gy) or doxorubicin (0.005-30 μM) were used to induce DNA damage in the cultured primary PBLs, which were then evaluated for signs of apoptosis, DNA repair efficiency, and cell cycle arrest. Apoptosis was evaluated by measuring the number of cells that stained for Annexin V (AV) and propidium iodide (PI); cells were categorized as being in late apoptosis if they were AV+PI+, and in early apoptosis if they were AV+PI−. Apoptosis was also measured either using APO-TOX GLO™ (Promega, Madison, Wis.) or CASPASE-GLO® 3/7 Assay (Promega) and […]-GLO® (Promega). The results were normalized to cell viability either using counts from the MULTI-TOX-FLUOR™ assay (Promega) included with APO-TOX GLO™, or using […]-GLO® when caspase activity was measured. Statistically significant differences in apoptosis were calculated in […] PRISM®.

[3] = tested on: human fibroblasts; assay: Caspase 3/7 cleavage after doxorubicin, human fibroblasts; type: cell-based; conditions: 10 μM and 30 μM doxorubicin
[4] = tested on: p53 target genes, p21 and MDM2; assay: Western blot of p53 pathway proteins in U-2OS cells expressing EP53^anc; type: cell-based, human
Experimental: For tetracycline inducible cells, the cells were treated with doxycycline for 24-48 hours prior to treatment with MG132 or doxorubicin. After the induction of DNA damage, the cells were harvested and pelleted. The cell pellets were frozen, and then lysed in cell lysis buffer containing phosphatase and protease inhibitors. The cell lysates were run on SDS-PAGE protein gels, and then transferred to PVDF membranes (western blots). The membranes were blocked, and then probed with primary antibodies to determine the p53 protein levels. The blots were probed with secondary HRP-conjugated antibodies, and the protein levels were detected using a substrate and a chemiluminometer. GAPDH was used as a loading control for each western blot. The blots were also probed for phosphorylated EP53^r at the serine-15 residue (phospho-EP53^r). DNA damage induces the phosphorylation of p53, which reduces the interaction of this protein with its negative regulator, mouse double minute 2 (MDM2) (Milczarek et al. Life Sci; 60: 1-11 (1997)).
(§1) U-2OS cells were also transduced with EP53^anc (SEQ ID NO: 2). These cells were then induced to express EP53^anc (SEQ ID NO: 3), and treated with doxorubicin to trigger DNA damage.

[5] = tested on: U-2OS cells; assay: U-2OS caspase activity after doxycycline induction; type: cell-based, human; conditions: after induction with doxycycline
[6] = tested on: U-2OS cells; assay: Caspase activity / apoptosis in U-2OS cells expressing EP53 genes; type: cell-based, human; conditions: compared to empty vector
Experimental: U-2OS cells were transfected with EP53^r5 (SEQ ID NO: 12) or EP53 ancestral (EP53^anc) (SEQ ID NO: 2), and then treated with doxycycline to induce EP53^r expression. The cells were then treated with doxorubicin to damage the DNA.
as §1

[7] = tested on: U-2OS cells; assay: U-2OS cell viability after doxycycline induction; type: cell-based, human; conditions: 72 hours after induction with doxycycline
Experimental: U-2OS cells were also transfected with EP53^anc (SEQ ID NO: 2) and human TP53, and the cell viability after induction with doxycycline was observed after 72 hours.

[8] = U-2OS induced to express, doxorubicin-treated

Molecule: COc1cccc2c1C(=O)c1c(O)c3c(c(O)c1C2=O)C[C@@](O)(C(=O)CO)C[C@@H]3O[C@H]1C[C@H](N)[C@H](O)[C@H](C)O1 [doxorubicin]
- caspase 3/7 cleavage [1]: 9.1 fold increase
- early apoptosis (AV+PI−) [2]: significant increase
- late apoptosis (AV+PI+) [2]: significant increase
- caspase 3/7 cleavage [3]: 2.24 fold increase

B1: EP53^anc: ancestral elephant TP53 gene (SEQ ID NO: 2) encoding elephant p53 protein (SEQ ID NO: 3), expressed from vector in cells (protein, listed as Loxodonta africana)
chain: MEEPQSDLSTELPLSQETFSYLWELLPENPVLSPTLPPAVEVMDDLLLSEDTANWLESQVEAQGMSTTPAPATPTPVAPAPATSWTLSSSVPSQKTYPGTYGFRLGFLHSGTAKSVTCTYSPDLNKLFCQLAKTCPVQLWVASPPPPGTRVRTMAIYKKSEHMTEVVKRCPHHERCSDSSDGLAPPQHLIRVEGNLRAEYLEDSITLRHSVVVPYEPPEVGSDCTTIHFNFMCNSSCMGGMNRRPILTIITLEDSSGNLLGRNSFEVRICACPGRDRRTEEENFHKKGEPCPEPPPPGRSTKRALPTNTSSSTQPKKKPLDEEYFTLQIRGRERFKMFLELNEALELKDAQAGKEPEGSRAHSSPSKSKKGQSTSRHKKPMFKREGPDSD
- endogenous human p53 expression ([4]; U-2OS cells expressing EP53^anc): less
- p53 target genes, p21 and MDM2 (western blot) [4, 8]: increase
- caspase activity [5]: 14.22%
- increase in caspase activity [6, 8]: 20 fold
- apoptosis ([6]; U-2OS, absence of doxorubicin treatment): significant apoptosis
- cell viability [7]: 35.6%
